Experimental data reported in publication PMC2516325.

Target: recombinant CquiOBP1, odorant-binding protein from Culex pipiens quinquefasciatus (Culex pipiens quinquefasciatus)
Assay: SEC; gel filtration of purified recombinant CquiOBP1 on Superdex-75 26/60, 150 mM NaCl, 20 mM Tris-HCl pH 8; monomer and dimer peaks isolated; the dimer slowly dissociates into monomer (1 hour at room temperature, overnight at 4°C)

stoichiometry N: 2
Substance: recombinant CquiOBP1, odorant-binding protein from Culex pipiens quinquefasciatus (natural protein)
